Measurements: article PMC3386215 (Molecular Biology of the Cell, 2012)

Molecular target: T1, His-Msb3 (S. cerevisiae, UniProt P48566 1-633)
T1 sequence: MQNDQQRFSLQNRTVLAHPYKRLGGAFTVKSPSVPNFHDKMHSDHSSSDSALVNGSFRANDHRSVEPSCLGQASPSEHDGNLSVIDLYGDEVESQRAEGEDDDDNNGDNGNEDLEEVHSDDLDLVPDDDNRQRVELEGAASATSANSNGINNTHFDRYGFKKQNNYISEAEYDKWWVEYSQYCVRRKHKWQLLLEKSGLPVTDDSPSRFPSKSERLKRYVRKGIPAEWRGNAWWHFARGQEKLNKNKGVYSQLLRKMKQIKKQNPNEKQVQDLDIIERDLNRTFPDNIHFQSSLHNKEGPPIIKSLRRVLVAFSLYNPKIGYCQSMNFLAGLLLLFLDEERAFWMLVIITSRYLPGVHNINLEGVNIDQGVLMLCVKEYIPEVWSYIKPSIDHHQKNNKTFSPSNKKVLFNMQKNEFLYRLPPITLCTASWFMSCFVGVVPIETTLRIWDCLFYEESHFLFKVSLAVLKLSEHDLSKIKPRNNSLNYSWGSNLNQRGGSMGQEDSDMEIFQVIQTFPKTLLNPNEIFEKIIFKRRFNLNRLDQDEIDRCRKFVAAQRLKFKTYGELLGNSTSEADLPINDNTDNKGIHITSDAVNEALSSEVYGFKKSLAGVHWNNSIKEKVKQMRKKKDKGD
Experiment: pull-down

B1: GST-Vps21 (preloaded with GDP) (enzyme)
chain: MNTSVTSIKLVLLGEAAVGKSSIVLRFVSNDFAENKEPTIGAAFLTQRVTINEHTVKFEIWDTAGQERFASLAPMYYRNAQAALVVYDVTKPQSFIKARHWVKELHEQASKDIIIALVGNKIDMLQEGGERKVAREEGEKLAEEKGLLFFETSAKTGENVNDVFLGIGEKIPLKTAEEQNSASNERESNNQRVDLNAANDGTSANSACSC
Q: Does B1 bind?
A: binds
